Residue numbers refer to the chain shown, from its start. Numbers in names are those of the source. Where “and” joins values, the source holds several entries; their conditions need not be identical. Identical values can stand only once.

Assay [1] addresses Factor X (Homo sapiens (Human)) (UniProt P00742).
For assay [2], the target named is Factor X (FX) (Homo sapiens (Human)) (UniProt P00742).
Chain of Factor X (FX) (Homo sapiens (Human)) (P00742 41-488 limits assumed): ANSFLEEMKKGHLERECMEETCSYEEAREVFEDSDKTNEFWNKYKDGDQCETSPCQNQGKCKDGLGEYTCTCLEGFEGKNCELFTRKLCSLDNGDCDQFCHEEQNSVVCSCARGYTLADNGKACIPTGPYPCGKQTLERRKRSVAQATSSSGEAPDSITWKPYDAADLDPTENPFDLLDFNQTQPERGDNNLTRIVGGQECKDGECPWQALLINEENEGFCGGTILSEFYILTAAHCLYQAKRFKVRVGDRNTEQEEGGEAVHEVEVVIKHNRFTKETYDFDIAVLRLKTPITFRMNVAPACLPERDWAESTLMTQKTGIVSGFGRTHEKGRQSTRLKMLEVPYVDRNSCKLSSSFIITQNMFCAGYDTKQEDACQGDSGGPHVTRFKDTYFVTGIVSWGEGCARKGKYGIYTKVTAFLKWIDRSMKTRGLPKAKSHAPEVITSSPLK

Regarding WT (NovoSeven-RT®) FVIIa (enzyme), in assay [1], the kcat/KM, TF-independent assay is 12.4 M⁻¹ s⁻¹.
Take “FVIIa variant T128N/P129A/A175S (enzyme)”: the kcat/KM, TF-Dependent Indirect Assay in assay [2] is 2.98e+07 M⁻¹ s⁻¹.
The same measure, in the same setting: the result for FVIIa variant S52A/S60A (enzyme) reads 1.05e+08 M⁻¹ s⁻¹.
Turning to “T128N/P129A/T239V/Q286R/M298Q/H373F-FVIIa (enzyme)”, in assay [1], the kcat/KM (M^-1s^-1), TF-dependent assay came to 2.36e+08 M⁻¹ s⁻¹ and the kcat/KM, TF-independent assay is 290 M⁻¹ s⁻¹.
For the molecule “{Gla swap FIX/K43I}/T128N/P129A/Q286R/M298Q/Q366N-FVIIa (enzyme)”, in assay [1], the kcat/KM (M^-1s^-1), TF-dependent assay came to 2.52e+08 M⁻¹ s⁻¹ and the kcat/KM, TF-independent assay came to 218 M⁻¹ s⁻¹.
In the case of “FVIIa variant Q286R/M298Q/Gla Swap FIX (enzyme)”, in assay [2], the kcat/KM, TF-Dependent Indirect Assay is 2.64e+08 M⁻¹ s⁻¹.
The same measure, in the same setting: the result for “FVIIa variant A122N/G124S/A175S (enzyme)” reads 2.79e+07 M⁻¹ s⁻¹; that for FVIIa variant K109N/A175S (enzyme), 3.67e+07 M⁻¹ s⁻¹.
As to “{Gla swap FIX/M19K/E40L/K43I/Q44S}/Q286R/M298Q-FVIIa (enzyme)”, the kcat/KM (M^-1s^-1), TF-dependent assay in assay [1] amounted to 1.21e+08 M⁻¹ s⁻¹.
Regarding “FVIIa variant S119N/L121S/A175S (enzyme)”, the kcat/KM, TF-Dependent Indirect Assay in assay [2] stood at 2.92e+07 M⁻¹ s⁻¹.
For WT (NovoSeven-RT®) (enzyme), in assay [1], the kcat/KM (M^-1s^-1), TF-dependent assay was 3.48e+07 M⁻¹ s⁻¹.
Still for that read-out and setting: the result for WT (NovoSeven®) (enzyme) reads 3.98e+07 M⁻¹ s⁻¹.
Take T128N/P129A/M298Q-FVIIa (enzyme): in assay [1], the kcat/KM (M^-1s^-1), TF-dependent assay is 6.29e+07 M⁻¹ s⁻¹ and the kcat/KM, TF-independent assay is 90.8 M⁻¹ s⁻¹.
As for FVIIa variant T128N/P129A (enzyme), the kcat/KM, TF-Dependent Indirect Assay in assay [2] is 5.96e+07 M⁻¹ s⁻¹.
As for T128N/P129A/M298Q/H373F-FVIIa (enzyme), in assay [1], the kcat/KM (M^-1s^-1), TF-dependent assay is 6.07e+07 M⁻¹ s⁻¹ and the kcat/KM, TF-independent assay came out at 91.6 M⁻¹ s⁻¹.
Take “Gla swap FIX/S222A/T239I/Q286R-FVIIa (enzyme)”: the kcat/KM, TF-independent assay in assay [1] came out at 20.3 M⁻¹ s⁻¹.
Consider “T128N/P129A/Q286R/M298Q/Q366N/H373F-FVIIa (enzyme)”, for which the kcat/KM, TF-dependent assay in assay [1] stood at 1.33e+08 M⁻¹ s⁻¹.
For FVIIa variant M298Q (enzyme), the kcat/KM, TF-Dependent Indirect Assay in assay [2] turned out to be 1.4e+08 M⁻¹ s⁻¹.
As for “T128N/P129A/Q286R/M298Q/Q366N-FVIIa (enzyme)”, in assay [1], the kcat/KM (M^-1s^-1), TF-dependent assay stood at 1.42e+08 M⁻¹ s⁻¹ and the kcat/KM, TF-independent assay amounted to 64.6 M⁻¹ s⁻¹.
In the case of “WT (NovoSeven®) recombinant human FVIIa (enzyme)”, the kcat/KM, TF-independent assay in assay [1] stood at 9.8 M⁻¹ s⁻¹.
With “T128N/P129A/T239V/Q286R/M298Q-FVIIa (enzyme)”, in assay [1], the kcat/KM (M^-1s^-1), TF-dependent assay came to 1.04e+08 M⁻¹ s⁻¹ and the kcat/KM, TF-independent assay was 230 M⁻¹ s⁻¹.
For the molecule “{Gla swap FIX/K43I}/T128N/P129A/Q286R/M298Q-FVIIa (enzyme)”, in assay [1], the kcat/KM (M^-1s^-1), TF-dependent assay was 2.71e+08 M⁻¹ s⁻¹ and the kcat/KM, TF-independent assay was determined as 389 M⁻¹ s⁻¹.
Taken in the same sequence, the figures for T239V/Q286R-FVIIa (enzyme) were 8.84e+07 M⁻¹ s⁻¹ and 11.8 M⁻¹ s⁻¹.
Taken in the same sequence, the figures for “T128N/P129A/S222A/T239V/H257A/Q286R/M298Q-FVIIa (enzyme)” were 1.21e+08 M⁻¹ s⁻¹ and 179 M⁻¹ s⁻¹.
FVIIa variant Q286R (enzyme): the kcat/KM, TF-Dependent Indirect Assay in assay [2] turned out to be 1.11e+08 M⁻¹ s⁻¹.
In the case of “Gla swap FIX/S222A/H257S/Q286R-FVIIa (enzyme)”, in assay [1], the kcat/KM, TF-independent assay was found to be 20.5 M⁻¹ s⁻¹.
For “{Gla swap FIX/K43I}/Q286R/M298Q/Q366N-FVIIa (enzyme)”, in assay [1], the kcat/KM (M^-1s^-1), TF-dependent assay came to 1.69e+08 M⁻¹ s⁻¹ and the kcat/KM, TF-independent assay was found to be 84.9 M⁻¹ s⁻¹.
As to M298Q-FVIIa (enzyme), in assay [1], the kcat/KM (M^-1s^-1), TF-dependent assay is 6.76e+07 M⁻¹ s⁻¹ and 7.46e+07 M⁻¹ s⁻¹; the kcat/KM, TF-independent assay was 69.9 M⁻¹ s⁻¹.
For FVIIa variant K109N (enzyme), the kcat/KM, TF-Dependent Indirect Assay in assay [2] worked out at 5.97e+07 M⁻¹ s⁻¹.
For the molecule FVIIa variant S222A (enzyme), the kcat/KM, TF-Dependent Indirect Assay in assay [2] came out at 5.73e+07 M⁻¹ s⁻¹.
For “Gla swap FIX/S52A/S60A/Q286R/M298Q-FVIIa (enzyme)”, in assay [1], the kcat/KM (M^-1s^-1), TF-dependent assay is 1.8e+08 M⁻¹ s⁻¹ and the kcat/KM, TF-independent assay is 989 M⁻¹ s⁻¹.
Turning to “T128N/P129A/T239I/Q286R/M298Q-FVIIa (enzyme)”, in assay [1], the kcat/KM (M^-1s^-1), TF-dependent assay is 8.17e+07 M⁻¹ s⁻¹ and the kcat/KM, TF-independent assay came to 77.8 M⁻¹ s⁻¹.
Regarding “T128N/P129A/T239I/Q286R/M298Q/H373F-FVIIa (enzyme)”, in assay [1], the kcat/KM (M^-1s^-1), TF-dependent assay stood at 1.3e+08 M⁻¹ s⁻¹ and the kcat/KM, TF-independent assay was 113 M⁻¹ s⁻¹.

B1: FVIIa variant Q286N (enzyme)
chain: ANAFLEELRPGSLERECKEEQCSFEEAREIFKDAERTKLFWISYSDGDQCASSPCQNGGSCKDQLQSYICFCLPAFEGRNCETHKDDQLICVNENGGCEQYCSDHTGTKRSCRCHEGYSLLADGVSCTPTVEYPCGKIPILEKRNASKPQGRIVGGKVCPKGECPWQVLLLVNGAQLCGGTLINTIWVVSAAHCFDKIKNWRNLIAVLGEHDLSEHDGDEQSRRVAQVIIPSTYVPGTTNHDIALLRLHQPVVLTDHVVPLCLPERTFSERTLAFVRFSLVSGWGNLLDRGATALELMVLNVPRLMTQDCLQQSRKVGDSPNITEYMFCAGYSDGSKDSCKGDSGGPHATHYRGTWYLTGIVSWGQGCATVGHFGVYTRVSQYIEWLQKLMRSEPRPGVLLRAPFP
Take B1: the kcat/KM, TF-Dependent Indirect Assay in assay [2] worked out at 4.88e+07 M⁻¹ s⁻¹.

B2: Q286R/S222A/H257A-FVIIa (enzyme)
chain: B1 chain with S222A, H257A, N286R
For the molecule B2, in assay [1], the kcat/KM (M^-1s^-1), TF-dependent assay worked out at 6.98e+07 M⁻¹ s⁻¹ and the kcat/KM, TF-independent assay was found to be 21.3 M⁻¹ s⁻¹.

B3: S222A/H257A/Q286R/M298Q-FVIIa (enzyme)
chain: B1 chain with S222A, H257A, N286R, M298Q
B3: in assay [1], the kcat/KM (M^-1s^-1), TF-dependent assay worked out at 1.65e+08 M⁻¹ s⁻¹ and the kcat/KM, TF-independent assay is 345 M⁻¹ s⁻¹.

B4: FVIIa variant S222K (enzyme)
chain: B1 chain with S222K, N286Q
As for B4, the kcat/KM, TF-Dependent Indirect Assay in assay [2] worked out at 8.02e+07 M⁻¹ s⁻¹.

B5: T239I-FVIIa (enzyme)
chain: B1 chain with T239I, N286Q
Turning to B5, in assay [1], the kcat/KM (M^-1s^-1), TF-dependent assay was determined as 2.62e+07 M⁻¹ s⁻¹.

B6: T239I/M298Q/H373F-FVIIa (enzyme)
chain: B1 chain with T239I, N286Q, M298Q, H373F
For B6, the kcat/KM, TF-dependent assay in assay [1] amounted to 3.47e+07 M⁻¹ s⁻¹.

B7: FVIIa variant Q286D (enzyme)
chain: B1 chain with N286D
Turning to B7, the kcat/KM, TF-Dependent Indirect Assay in assay [2] was determined as 6.04e+06 M⁻¹ s⁻¹.

B8: FVIIa variant Q286V (enzyme)
chain: B1 chain with N286V
Take B8: the kcat/KM, TF-Dependent Indirect Assay in assay [2] stood at 1.65e+07 M⁻¹ s⁻¹.

B9: FVIIa variant H216R (enzyme)
chain: B1 chain with H216R, N286Q
Consider B9, for which, in assay [2], the kcat/KM, TF-Dependent Indirect Assay stood at 9.44e+07 M⁻¹ s⁻¹.

B10: T239I/Q286R/M298Q/Q366N-FVIIa (enzyme)
chain: B1 chain with T239I, N286R, M298Q, Q366N
Consider B10, for which the kcat/KM, TF-dependent assay in assay [1] came out at 7.4e+07 M⁻¹ s⁻¹.

B11: FVIIa variant H257S (enzyme)
chain: B1 chain with H257S, N286Q
As for B11, the kcat/KM, TF-Dependent Indirect Assay in assay [2] was determined as 5.9e+07 M⁻¹ s⁻¹.

B12: FVIIa variant K161S (enzyme)
chain: B1 chain with K161S, N286Q
For B12, the kcat/KM, TF-Dependent Indirect Assay in assay [2] was 5.99e+07 M⁻¹ s⁻¹.

B13: A175S-FVIIa (enzyme)
chain: B1 chain with A175S, N286Q
In the case of B13, the kcat/KM (M^-1s^-1), TF-dependent assay in assay [1] was found to be 2.11e+07 M⁻¹ s⁻¹.

B14: Q286R/S222A-FVIIa (enzyme)
chain: B1 chain with S222A, N286R
For the molecule B14, in assay [1], the kcat/KM (M^-1s^-1), TF-dependent assay turned out to be 1.11e+08 M⁻¹ s⁻¹.

B15: FVIIa variant Q286K (enzyme)
chain: B1 chain with N286K
Regarding B15, the kcat/KM, TF-Dependent Indirect Assay in assay [2] was determined as 5.44e+07 M⁻¹ s⁻¹.

B16: FVIIa variant H257A (enzyme)
chain: B1 chain with H257A, N286Q
Take B16: the kcat/KM, TF-Dependent Indirect Assay in assay [2] was 3.9e+07 M⁻¹ s⁻¹.

B17: FVIIa variant Q286E (enzyme)
chain: B1 chain with N286E
Regarding B17, in assay [2], the kcat/KM, TF-Dependent Indirect Assay came to 1.14e+07 M⁻¹ s⁻¹.

B18: T239V-FVIIa (enzyme)
chain: B1 chain with T239V, N286Q
B18: the kcat/KM (M^-1s^-1), TF-dependent assay in assay [1] stood at 4.64e+07 M⁻¹ s⁻¹.

B19: FVIIa variant Q286S (enzyme)
chain: B1 chain with N286S
In the case of B19, the kcat/KM, TF-Dependent Indirect Assay in assay [2] was determined as 4.64e+07 M⁻¹ s⁻¹.

B20: H257A/M298Q-FVIIa (enzyme)
chain: B1 chain with H257A, N286Q, M298Q
For B20, in assay [1], the kcat/KM (M^-1s^-1), TF-dependent assay came to 1.67e+07 M⁻¹ s⁻¹.

B21: FVIIa variant H216S (enzyme)
chain: B1 chain with H216S, N286Q
For the molecule B21, in assay [2], the kcat/KM, TF-Dependent Indirect Assay came to 4.74e+07 M⁻¹ s⁻¹.

B22: FVIIa variant H216A (enzyme)
chain: B1 chain with H216A, N286Q
B22: the kcat/KM, TF-Dependent Indirect Assay in assay [2] is 5.98e+07 M⁻¹ s⁻¹.

B23: FVIIa variant Q286T (enzyme)
chain: B1 chain with N286T
Turning to B23, the kcat/KM, TF-Dependent Indirect Assay in assay [2] was found to be 2.44e+07 M⁻¹ s⁻¹.

B24: FVIIa variant H216K (enzyme)
chain: B1 chain with H216K, N286Q
For B24, the kcat/KM, TF-Dependent Indirect Assay in assay [2] amounted to 6.51e+07 M⁻¹ s⁻¹.

B25: FVIIa variant Q286A (enzyme)
chain: B1 chain with N286A
For the molecule B25, the kcat/KM, TF-Dependent Indirect Assay in assay [2] amounted to 8.55e+07 M⁻¹ s⁻¹.

These data come from patent US20090291890A1 (published 2009).
